Test results: patent US20090208512A1

Biological target: human recombinant Factor VIII (human) (UniProt P00451)
Test: cell-based or functional assay

Sequence of UniProt P00451 (P00451 20-2351): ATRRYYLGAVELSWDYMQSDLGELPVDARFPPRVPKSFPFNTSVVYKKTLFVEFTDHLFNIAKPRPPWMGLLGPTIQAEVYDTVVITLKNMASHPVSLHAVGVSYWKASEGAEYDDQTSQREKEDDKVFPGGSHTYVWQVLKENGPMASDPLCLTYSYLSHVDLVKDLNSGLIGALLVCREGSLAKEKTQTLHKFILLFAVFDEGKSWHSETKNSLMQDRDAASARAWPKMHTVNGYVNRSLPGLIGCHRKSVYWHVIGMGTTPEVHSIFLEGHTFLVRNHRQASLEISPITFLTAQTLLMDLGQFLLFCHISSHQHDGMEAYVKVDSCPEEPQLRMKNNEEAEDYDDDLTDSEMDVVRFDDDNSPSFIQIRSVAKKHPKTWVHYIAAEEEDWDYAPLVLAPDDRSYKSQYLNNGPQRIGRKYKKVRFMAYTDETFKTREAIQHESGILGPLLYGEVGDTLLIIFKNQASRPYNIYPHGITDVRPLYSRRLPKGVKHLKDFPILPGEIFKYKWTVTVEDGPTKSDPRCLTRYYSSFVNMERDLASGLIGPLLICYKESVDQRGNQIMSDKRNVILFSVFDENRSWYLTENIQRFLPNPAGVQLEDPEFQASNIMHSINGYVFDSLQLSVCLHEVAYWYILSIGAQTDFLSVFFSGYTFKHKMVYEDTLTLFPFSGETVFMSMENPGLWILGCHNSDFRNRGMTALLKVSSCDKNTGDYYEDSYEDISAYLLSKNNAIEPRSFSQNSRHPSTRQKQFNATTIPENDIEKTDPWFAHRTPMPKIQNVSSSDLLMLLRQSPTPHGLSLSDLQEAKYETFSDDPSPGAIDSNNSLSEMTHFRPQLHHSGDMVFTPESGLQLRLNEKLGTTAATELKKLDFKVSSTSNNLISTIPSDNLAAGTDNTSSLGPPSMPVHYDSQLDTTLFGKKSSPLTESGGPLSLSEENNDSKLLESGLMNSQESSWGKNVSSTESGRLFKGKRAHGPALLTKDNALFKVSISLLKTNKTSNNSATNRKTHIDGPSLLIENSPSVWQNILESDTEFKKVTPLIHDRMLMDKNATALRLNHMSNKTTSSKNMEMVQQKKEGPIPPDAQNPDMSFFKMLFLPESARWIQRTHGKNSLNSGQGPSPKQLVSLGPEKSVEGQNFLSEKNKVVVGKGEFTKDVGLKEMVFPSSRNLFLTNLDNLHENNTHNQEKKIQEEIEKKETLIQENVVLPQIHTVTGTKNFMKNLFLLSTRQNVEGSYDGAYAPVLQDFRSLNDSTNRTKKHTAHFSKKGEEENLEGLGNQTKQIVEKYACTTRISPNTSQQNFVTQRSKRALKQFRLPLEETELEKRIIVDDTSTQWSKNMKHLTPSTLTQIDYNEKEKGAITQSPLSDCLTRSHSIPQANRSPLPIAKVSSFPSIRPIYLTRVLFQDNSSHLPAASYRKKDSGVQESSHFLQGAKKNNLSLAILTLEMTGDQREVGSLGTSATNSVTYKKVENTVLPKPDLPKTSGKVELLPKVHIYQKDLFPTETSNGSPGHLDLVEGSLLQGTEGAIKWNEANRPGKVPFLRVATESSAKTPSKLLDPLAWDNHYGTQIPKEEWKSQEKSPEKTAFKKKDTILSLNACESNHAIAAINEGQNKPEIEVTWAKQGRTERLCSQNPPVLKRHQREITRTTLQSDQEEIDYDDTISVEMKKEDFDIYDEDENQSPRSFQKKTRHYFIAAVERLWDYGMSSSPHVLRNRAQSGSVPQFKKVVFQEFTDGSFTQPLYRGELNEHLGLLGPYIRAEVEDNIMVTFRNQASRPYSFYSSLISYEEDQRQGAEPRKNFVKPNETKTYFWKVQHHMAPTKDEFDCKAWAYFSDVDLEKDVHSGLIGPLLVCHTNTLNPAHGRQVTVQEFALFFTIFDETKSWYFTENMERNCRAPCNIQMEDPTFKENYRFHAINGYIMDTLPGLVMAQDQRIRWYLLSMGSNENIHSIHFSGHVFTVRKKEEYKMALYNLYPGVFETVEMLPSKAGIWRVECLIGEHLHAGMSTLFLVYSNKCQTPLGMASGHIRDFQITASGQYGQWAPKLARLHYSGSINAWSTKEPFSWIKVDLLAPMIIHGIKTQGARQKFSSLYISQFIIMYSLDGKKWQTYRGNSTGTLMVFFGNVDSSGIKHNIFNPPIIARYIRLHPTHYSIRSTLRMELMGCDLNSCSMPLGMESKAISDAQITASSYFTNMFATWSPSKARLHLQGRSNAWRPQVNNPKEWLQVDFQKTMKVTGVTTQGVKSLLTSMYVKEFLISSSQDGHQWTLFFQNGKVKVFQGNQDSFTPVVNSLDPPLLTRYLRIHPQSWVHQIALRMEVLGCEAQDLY

inhibition of hydrolysis of Factor VIII by anti-Factor VIII IgG: 36.9%
Substance: von Willebrand Factor (from UniProt P04275 764-2813)
